In PMC4407828 (Nature communications, 2015):

Biological target: GST-Tip60 (UniProt Q92993 1-513)
Assay: pull-down

Sequence of GST-Tip60 (Q92993 whole entry): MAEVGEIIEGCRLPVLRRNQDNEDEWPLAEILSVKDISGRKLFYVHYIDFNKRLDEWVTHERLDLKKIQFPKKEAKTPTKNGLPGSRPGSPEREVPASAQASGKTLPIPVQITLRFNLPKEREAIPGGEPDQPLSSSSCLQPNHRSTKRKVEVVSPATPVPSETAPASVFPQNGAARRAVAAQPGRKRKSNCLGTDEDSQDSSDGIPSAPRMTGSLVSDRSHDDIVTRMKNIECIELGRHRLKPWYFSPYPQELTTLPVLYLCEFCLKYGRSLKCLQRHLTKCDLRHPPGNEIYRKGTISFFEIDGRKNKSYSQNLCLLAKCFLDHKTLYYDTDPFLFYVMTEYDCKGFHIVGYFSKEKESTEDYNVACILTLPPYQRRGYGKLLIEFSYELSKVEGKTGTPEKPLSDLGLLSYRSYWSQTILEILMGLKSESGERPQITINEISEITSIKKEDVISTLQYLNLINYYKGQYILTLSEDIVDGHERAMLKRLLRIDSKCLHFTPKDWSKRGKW

B1: His-ATF3 (natural protein, UniProt P18847 1-181, looked up)
chain: MMLQHPGQVSASEVSASAIVPCLSPPGSLVFEDFANLTPFVKEELRFAIQNKHLCHRMSSALESVTVSDRPLGVSITKAEVAPEEDERKKRRRERNKIAAAKCRNKKKEKTECLQKESEKLESVNAELKAQIEELKNEKQHLIYMLNLHRPTCIVRAQNGRTPEDERNLFIQQIKEGTLQS
binding result: binds
